Assay results: patent publication US20220056087A1 (GLIKNIK, published 2022)

B1: His-tagged human FcγRIIb (R&D system cat #1875-CD) (receptor, UniProt P31994 46-217, looked up)
chain: APPKAVLKLEPQWINVLQEDSVTLTCRGTHSPESDSIQWFHNGNLIPTHTQPSYRFKANNNDSGEYTCQTGQTSLSDPVHLTVLSEWLVLQTPHLEFQEGETIVLRCHSWKDKPLVKVTFFQNGKSKKFSRSDPNFSIPQANHSHSGDYHCTGNIGYTLYSSKPVTITVQAP
notes: Bought protein
B2: Cynomolgus FcγRIIb (receptor)
chain: TPAAPPKAVLKLEPPWINVLREDSVTLTCGGAHSPDSDSTQWFHNGNLIPTHTQPSYRFKANNNDSGEYRCQTGRTSLSDPVHLTVLSEWLALQTPHLEFREGETIMLRCHSWKDKPLIKVTFFQNGKSKKFSHMDPNFSIPQANHSHSGDYHCTGNIGYTPYSSKPVTITVQVP
B3: mouse IgG2a Fc homodimers (other, UniProt P01863 98-330, looked up)
chain: EPRGPTIKPCPPCKCPAPNLLGGPSVFIFPPKIKDVLMISLSPIVTCVVVDVSEDDPDVQISWFVNNVEVHTAQTQTHREDYNSTLRVVSALPIQHQDWMSGKEFKCKVNNKDLPAPIERTISKPKGSVRAPQVYVLPPPEEEMTKKQVTLTCMVTDFMPEDIYVEWTNNGKTELNYKNTEPVLDSDGSYFMYSKLRVEKKNWVERNSYSCSVVHEGLHNHHTTKSFSRTPGK
notes: domain: Fc; also called IgG2a controls; IgG2a Fc control
B4: Cynomolgus FcγRIIIa (receptor, UniProt Q8SPW2 17-208, looked up)
chain: GMRAEDLPKAVVFLEPQWYRVLEKDRVTLKCQGAYSPEDNSTRWFHNESLISSQTSSYFIAAARVNNSGEYRCQTSLSTLSDPVQLEVHIGWLLLQAPRWVFKEEESIHLRCHSWKNTLLHKVTYLQNGKGRKYFHQNSDFYIPKATLKDSGSYFCRGLIGSKNVSSETVNITITQDLAVSSISSFFPPGYQ
B5: mouse FcγRIIB (immobilized on CM4 chip) (receptor, UniProt P08101 30-207, looked up)
chain: THDLPKAVVKLEPPWIQVLKEDTVTLTCEGTHNPGNSSTQWFHNGRSIRSQVQASYTFKATVNDSGEYRCQMEQTRLSDPVDLGVISDWLLLQTPQLVFLEGETITLRCHSWRNKLLNRISFFHNEKSVRYHHYSSNFSIPKANHSHSGDYYCKGSLGRTLHQSKPVTITVQGPKSSR
notes: also called mouse FcγR2b
B6: His-tagged mouse FcγRII (R&D system cat #1460-CD) (receptor, UniProt P08101 30-207, looked up)
chain: B5 chain
notes: Bought protein; also called Mouse FcγRIIb; Mouse FcyRII
B7: M028 stradomer (Fc fusion)
chain: SIKQIEDKIEEILSKIYHIENEIARIKKLIGERGEPRGPTIKPCPPCKCPAPNLLGGPSVFIFPPKIKDVLMISLSPIVTCVVVDVSEDDPDVQISWFVNNVEVHTAQTQTHREDYNSTLRVVSALPIQHQDWMSGKEFKCKVNNKDLPAPIERTISKPKGSVRAPQVYVLPPPEEEMTKKQVTLTCMVTDFMPEDIYVEWTNNGKTELNYKNTEPVLDSDGSYFMYSKLRVEKKNWVERNSYSCSVVHEGLHNHHTTKSFSRTPGK
notes: Murine counterpart of G028 (N-terminal isoleucine zipper); The entry may include a leader
B8: M045c stradomer (Fc fusion)
chain: DEPRGPTIKPCPPCKCPAPNLLGGPSVFIFPPKIKDVLMISLSPIVTCVVVDVSEDDPDVQISWFVNNVEVHTAQTQTHREDYNSTLRVVSALPIQHQDWMSGKEFKCKVNNKDLPAPIERTISKPKGSVRAPQVYVLPPPEEEMTKKQVTLTCMVTDFMPEDIYVEWTNNGKTELNYKNTEPVLDSDGSYFMYSKLRVEKKNWVERNSYSCSVVHEGLHNHHTTKSFSRTPGKERKCCVECPPCP
notes: Murine counterpart of G045c; The entry may include a leader that is cleaved from the secreted protein; Mix of homodimers and multimers
B9: M045 F1 (highest molecular weight multimer fraction of M045c) (Fc fusion)
chain: B8 chain
notes: The entry may include a leader; also called Fraction 1; M045 Fraction 1
B10: M045 F2 (Fc fusion)
stradomer monomer: B8 chain
notes: also called lower molecular weight multimer fraction of M045
B11: M045 F3 (Fc fusion)
stradomer monomer: B8 chain
notes: also called homodimer fraction of M045
B12: M019 stradomer (Fc fusion)
chain: ERKCCVECPPCPEPRGPTIKPCPPCKCPAPNLLGGPSVFIFPPKIKDVLMISLSPIVTCVVVDVSEDDPDVQISWFVNNVEVHTAQTQTHREDYNSTLRVVSALPIQHQDWMSGKEFKCKVNNKDLPAPIERTISKPKGSVRAPQVYVLPPPEEEMTKKQVTLTCMVTDFMPEDIYVEWTNNGKTELNYKNTEPVLDSDGSYFMYSKLRVEKKNWVERNSYSCSVVHEGLHNHHTTKSFSRTPGK
notes: Murine counterpart of G019 (N-terminal IgG2 hinge multimerization domain); The entry may include a leader
B13: mouse FcγRIIIA (immobilized on CM4 chip) (receptor, UniProt P08508 31-215, looked up)
chain: ALPKAVVKLDPPWIQVLKEDMVTLMCEGTHNPGNSSTQWFHNGRSIRSQVQASYTFKATVNDSGEYRCQMEQTRLSDPVDLGVISDWLLLQTPQRVFLEGETITLRCHSWRNKLLNRISFFHNEKSVRYHHYKSNFSIPKANHSHSGDYYCKGSLGSTQHQSKPVTITVQDPATTSSISLVWYHT
notes: also called mouse FcγR3A
B14: His-tagged mouse FcγRIII (R&D system cat #1960) (receptor, UniProt P08508 31-215, looked up)
chain: B13 chain
notes: Bought protein; also called Mouse FcyRIII

How the values were obtained:
[1] = biological target: T1, G001 (native IgG1 Fc) (human, UniProt P01857-1 99-330 = IgG part); assay: BLI (Octet 96 Red), receptor on sensor, G001 in solution
T1 construct: domain: Fc; also called IgG1 Fc control; homodimeric monomer of IgG1 Fc
Method: For binding analysis of mouse protein, His-tagged mouse FcγRII (R&D system cat #1460-CD) and FcγRIII R&D system cat #1960) were separately loaded on anti-penta-His Biosensors (ForteBio cat #18-5077) at 10 ug/ml in 1× kinetic analysis buffer (ForteBio cat #18-5032). For binding analysis of human protein, His-tagged human FcγRIIb (R&D system cat #1875-CD) and FcγRIIIa R&D system cat #4325-Fc) were separately loaded on anti-penta-His Biosensors (ForteBio cat #18-5077) at 10 ug/ml in 1× kinetic analysis buffer (ForteBio cat #18-5032). Following sensor tip loading protein association was measured by transfer of tips to preparations of either monomeric fraction (over a range of concentrations) or the multimeric fractions (over a range of concentrations) in 1× kinetics analysis buffer and dissociation was measured by transfer of sensor tips to 1× kinetics buffer. Analysis was as described (Data Analysis User Guide 6.4ForteBio). Analysis was standardized as described above assigning a MW of 50 kD to homodimers and 150 kD to all other protein preparations.

[2] = biological target: T2, mouse SIGN-R1 (immobilized on CM4 chip) (mouse, UniProt Q8CJ91 74-325, limits assumed); assay: SPR (Biacore) as in Example 4, SIGN-R1 on the chip; the sheet itself says the value cannot be accurately calculated; traces flat
T2 sequence (looked up): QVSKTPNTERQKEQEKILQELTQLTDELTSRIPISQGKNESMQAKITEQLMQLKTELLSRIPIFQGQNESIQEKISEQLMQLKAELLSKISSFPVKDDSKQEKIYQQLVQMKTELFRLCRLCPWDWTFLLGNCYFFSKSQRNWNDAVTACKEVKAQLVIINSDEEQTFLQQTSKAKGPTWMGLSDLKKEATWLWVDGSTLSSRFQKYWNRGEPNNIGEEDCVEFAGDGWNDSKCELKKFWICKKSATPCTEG
Method: (§1) FcγRIIIA, FcγRIIB and SIGN-R1 receptors were immobilized to a CM4 chip using amine immobilization to 560, 500, and 1000RU, respectively to compensate for protein size.
(§2) Regeneration was achieved by a 10 sec injection of 1M MgCl at 100 ul/min, followed by a brief wash with running buffer. KDs were calculated using T100 evaluation software.
(§3) M045F was first gel fractionated using an AktaXpress protein purification system and a GE HiLoad 16/60 Superdex 200 prep grade column.

[3] = biological target: B3; assay: SPR (Biacore), receptor amine-coupled to a CM4 chip; panel 'Mse FcR2B'
Method: as §1, §2

[4] = biological target: B13; assay: SPR (Biacore), receptor amine-coupled to a CM4 chip, analyte 500 nM to 1.9 nM; panel 'Mse FcR3A'
Method: as §1, §2

[5] = biological target: T2, mouse SIGN-R1 (immobilized on CM4 chip); assay: SPR (Biacore) as in Example 4, SIGN-R1 on the chip
Method: as §1, §2, §3

[6] = biological target: T2, mouse SIGN-R1 (immobilized on CM4 chip); assay: SPR (Biacore) as in Example 4, SIGN-R1 on the chip; the sheet itself says the value cannot be accurately calculated; traces nearly flat
Method: as §1, §2, §3

[7] = biological target: T2, mouse SIGN-R1 (immobilized on CM4 chip); assay: SPR (Biacore), receptor amine-coupled to a CM4 chip, analyte 500 nM to 1.9 nM; panel 'Mse SIGN-R1'
Method: as §1, §2

[8] = biological target: B5; assay: SPR (Biacore), receptor amine-coupled to a CM4 chip, analyte 500 nM to 1.9 nM; panel 'Mse FcR2B'
Method: as §1, §2

[9] = biological target: B3; assay: SPR (Biacore), receptor amine-coupled to a CM4 chip; panel 'Mse FcR3A'
Method: as §1, §2

Work on B1 yielded a Kd [1] of 1310 nM.

B2 was tested, and the Kd [1] was 2040 nM.

Work on B3 yielded a Kd [2] of 132 nM.

Binder B4 has a kon [1] of 124000 M⁻¹ s⁻¹.

For B5, the Kd [3] was 642 nM.

Work on B6 yielded a Kd [1] of 1510 nM.

Binder B7 has a Kd [4] of 18.7 nM and a Kd [5] of 638 nM.

In the case of B8, the Kd [5] is reported as 334 nM.

In the case of B9, the Kd [5] is reported as 90.9 nM.

In the case of B10, the Kd [5] is reported as 91.2 nM.

B11 gave a Kd [6] of 11000 nM.

In the case of B12, the binding result [7] is reported as “binds” and the Kd [8] is reported as 45.3 nM.

B13 showed a Kd [9] of 80.1 nM.

With B14 the Kd [1] was 4180 nM.
